# Reference: patent publication US20250019438A1 (AstraZeneca / MedImmune, published 2025)
# Numbering of substitutions follows the chain as printed.
# B1: AZ Vκ+AZ VH IgG1-TM (antibody, V domains shown)
# VH: QVQLVESGGGVVQPGRSLRLSCAASGFTFTKAWMHWVRQAPGKQLEWVAQIKDKSNSYATYYADSVKGRFTISRDDSKNTLYLQMNSLRAEDTAVYYCRGVYYALSPFDYWGQGTLVTVSS
# VL: DIVMTQTPLSLSVTPGQPASISCKSSQSLVHNNANTYLSWYLQKPGQSPQSLIYKVSNRFSGVPDRFSGSGSGTDFTLKISRVEAEDVGVYYCGQGTQYPFTFGSGTKVEIK
# notes: also called parental AZ Vκ+AZ VH IgG1-TM; parental anti-CD3 antibody
# B2: AZ Vκ 7 + AZ VH 13 (antibody, IgG1, V domains shown)
# VH: EVQLVESGGALVKPGGSLRLSCAASGFTFTKAYMHWVRQAPGKQLEWVAQIKDRSQSYATYYAESVKGRFTISRDDSKNTLYLQMNSLKTEDTAVYYCRGVYYALSPFDYWGQGTLVTVSS
# VL: B1 VL with T7S, S12P, Q17E, K24R, N33T, A34G, F60A
# notes: member of the group m34
# B3: AZ Vκ 7 + AZ VH 21 (antibody, IgG1, V domains shown)
# VH: B2 VH with T30S, K31N
# VL: B1 VL with T7S, S12P, Q17E, K24R, N33T, A34G, F60A
# notes: member of the group m34
# B4: EGFR-CD3 DuetMab with the parental anti-CD3 arm (bispecific antibody, part only; not given: anti-EGFR arm, constant regions, V domains shown, not shown: another chain or arm of the molecule; a dimerising Fc or GST; small tags and cut ends)
# VH: B1 VH
# VL: B1 VL
# B5: EGFR-CD3 DuetMab with anti-CD3 variant AZ Vκ 26 + AZ VH R82 (bispecific antibody, part only; not given: anti-EGFR arm, constant regions, V domains shown, not shown: another chain or arm of the molecule; a dimerising Fc or GST; small tags and cut ends)
# VH: B2 VH with K31R, Y33W, S57T, L105N, S106T
# VL: B1 VL with T7S, S12P, Q17E, K24R, N33T, A34G, F60A, Y99A, T102S
# B6: EGFR-CD3 DuetMab with anti-CD3 variant AZ Vκ 26 + AZ VH R75 (bispecific antibody, part only; not given: anti-EGFR arm, constant regions, V domains shown, not shown: another chain or arm of the molecule; a dimerising Fc or GST; small tags and cut ends)
# VH: B2 VH with K31R, Y33W, S57T, L105N, S106A
# VL: B1 VL with T7S, S12P, Q17E, K24R, N33T, A34G, F60A, Y99A, T102S
# B7: EGFR-CD3 DuetMab with anti-CD3 variant AZ Vκ 17 + AZ VH SN79 (bispecific antibody, part only; not given: anti-EGFR arm, constant regions, V domains shown, not shown: another chain or arm of the molecule; a dimerising Fc or GST; small tags and cut ends)
# VH: B2 VH with T30S, K31N, Y33W, S57T, L105V, S106T
# VL: B1 VL with T7S, S12P, Q17E, K24R, N33T, A34G, F60A, Y99A
# B8: EGFR-CD3 DuetMab with anti-CD3 variant AZ Vκ 17 + AZ VH R82 (bispecific antibody, part only; not given: anti-EGFR arm, constant regions, V domains shown, not shown: another chain or arm of the molecule; a dimerising Fc or GST; small tags and cut ends)
# VH: B2 VH with K31R, Y33W, S57T, L105N, S106T
# VL: B1 VL with T7S, S12P, Q17E, K24R, N33T, A34G, F60A, Y99A
# B9: EGFR-CD3 DuetMab with anti-CD3 variant AZ Vκ 26 + AZ VH E79 (bispecific antibody, part only; not given: anti-EGFR arm, constant regions, V domains shown, not shown: another chain or arm of the molecule; a dimerising Fc or GST; small tags and cut ends)
# VH: B2 VH with K31E, Y33W, S57T, L105V, S106T
# VL: B1 VL with T7S, S12P, Q17E, K24R, N33T, A34G, F60A, Y99A, T102S
# B10: EGFR-CD3 DuetMab with anti-CD3 variant AZ Vκ 29 + AZ VH SN82 (bispecific antibody, part only; not given: anti-EGFR arm, constant regions, V domains shown, not shown: another chain or arm of the molecule; a dimerising Fc or GST; small tags and cut ends)
# VH: B2 VH with T30S, K31N, Y33W, S57T, L105N, S106T
# VL: B1 VL with T7S, S12P, Q17E, K24R, N33T, A34G, F60A, Y99F
# B11: EGFR-CD3 DuetMab with anti-CD3 variant AZ Vκ 29 + AZ VH E82 (bispecific antibody, part only; not given: anti-EGFR arm, constant regions, V domains shown, not shown: another chain or arm of the molecule; a dimerising Fc or GST; small tags and cut ends)
# VH: B2 VH with K31E, Y33W, S57T, L105N, S106T
# VL: B1 VL with T7S, S12P, Q17E, K24R, N33T, A34G, F60A, Y99F
# B12: EGFR-CD3 DuetMab with anti-CD3 variant AZ Vκ 26 + AZ VH SN82 (bispecific antibody, part only; not given: anti-EGFR arm, constant regions, V domains shown, not shown: another chain or arm of the molecule; a dimerising Fc or GST; small tags and cut ends)
# VH: B2 VH with T30S, K31N, Y33W, S57T, L105N, S106T
# VL: B1 VL with T7S, S12P, Q17E, K24R, N33T, A34G, F60A, Y99A, T102S
# B13: EGFR-CD3 DuetMab with anti-CD3 variant AZ Vκ 29 + AZ VH R79 (bispecific antibody, part only; not given: anti-EGFR arm, constant regions, V domains shown, not shown: another chain or arm of the molecule; a dimerising Fc or GST; small tags and cut ends)
# VH: B2 VH with K31R, Y33W, S57T, L105V, S106T
# VL: B1 VL with T7S, S12P, Q17E, K24R, N33T, A34G, F60A, Y99F
# B14: EGFR-CD3 DuetMab with anti-CD3 variant AZ Vκ 17 + AZ VH SN75 (bispecific antibody, part only; not given: anti-EGFR arm, constant regions, V domains shown, not shown: another chain or arm of the molecule; a dimerising Fc or GST; small tags and cut ends)
# VH: B2 VH with T30S, K31N, Y33W, S57T, L105N, S106A
# VL: B1 VL with T7S, S12P, Q17E, K24R, N33T, A34G, F60A, Y99A
# B15: EGFR-CD3 DuetMab with anti-CD3 variant AZ Vκ 29 + AZ VH E79 (bispecific antibody, part only; not given: anti-EGFR arm, constant regions, V domains shown, not shown: another chain or arm of the molecule; a dimerising Fc or GST; small tags and cut ends)
# VH: B2 VH with K31E, Y33W, S57T, L105V, S106T
# VL: B1 VL with T7S, S12P, Q17E, K24R, N33T, A34G, F60A, Y99F
# Biological target: T1, Cynomolgus monkey CD3 on HSC-F cells (cynomolgus monkey, UniProt Q95LI5 22-198; Q95LI8 22-171; Q95LI7 23-181)
# T1 construct: whole, on cells; CD3 complex; also called cyCD3+; cynomolgus CD3+ cells
# T1 sequence (Q95LI5 22-198, chain 1 of 3): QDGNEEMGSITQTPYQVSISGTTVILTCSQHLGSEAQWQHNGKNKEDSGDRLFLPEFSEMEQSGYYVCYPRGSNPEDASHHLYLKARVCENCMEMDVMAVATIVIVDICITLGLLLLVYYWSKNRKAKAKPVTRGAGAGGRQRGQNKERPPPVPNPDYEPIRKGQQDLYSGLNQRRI
# T1 sequence (Q95LI8 22-171, chain 2 of 3): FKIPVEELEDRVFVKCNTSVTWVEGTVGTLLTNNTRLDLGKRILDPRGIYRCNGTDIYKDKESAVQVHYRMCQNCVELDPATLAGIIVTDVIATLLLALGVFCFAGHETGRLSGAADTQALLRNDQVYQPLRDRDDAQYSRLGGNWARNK
# T1 sequence (Q95LI7 23-181, chain 3 of 3): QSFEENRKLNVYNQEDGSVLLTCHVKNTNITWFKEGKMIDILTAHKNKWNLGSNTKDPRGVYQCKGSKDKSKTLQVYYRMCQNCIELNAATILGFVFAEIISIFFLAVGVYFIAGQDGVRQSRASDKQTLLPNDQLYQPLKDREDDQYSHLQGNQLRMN
# Experiment: flow cytometry on HSC-F cells (cyCD3+), detection with Alexa Fluor 647 goat F(ab')2 anti-human IgG Fcγ
# Description: (§1) Flow Cytometry was used to determine specific cell surface antigen binding. The human leukemia T cell lines HPB-ALL, Jurkat, Jurkat TCR KO, and cynomolgus T cell line HSC-F were used to assess human CD3 and cynomolgus CD3 binding, respectively. Briefly, 1×10⁵ cells were suspended in FACS buffer (1×PBS, pH 7.2 supplemented with 2% heat-inactivated FBS, 0.1% sodium azide and 2 mM EDTA) and placed into each well of a round-bottom 96-well plate. Antibodies were diluted to various concentrations using FACS buffer and added to the cells. Antibodies and cells were washed twice with FACS buffer after incubation at 4° C. for 30 min. Cell surface antigen binding of antibodies was detected with Alexa Fluor 647-conjugated goat F(ab′)₂ fragment specifically against human IgG Fcγ fragment. Data was collected using a BD FACSymphony A3 Cell Analyzer (BD Biosciences). Data was analyzed with FlowJo v10.6.1 and plotted using GraphPad Prism v9.0.0.
row,EC50 (read off the curve),Binder
1,~40 nM,B1

# Biological target: T1, Cynomolgus monkey CD3 on HSC-F cells
# Experiment: flow cytometry on HSC-F cells (cyCD3++), detection with Alexa Fluor 647 goat F(ab')2 anti-human IgG Fcγ
# Description: as §1
EC50 (read off the curve),binding result,Binder
~40 nM,–,B1
–,binds,B2
–,binds,B3

# Biological target: T2, Human CD3 on HPB-ALL and Jurkat cells (human, UniProt P07766 23-207; P04234 22-171; P09693 23-182)
# T2 construct: whole, on cells; also called hCD3+; human CD3+ cells
# T2 sequence (P07766 23-207, chain 1 of 3): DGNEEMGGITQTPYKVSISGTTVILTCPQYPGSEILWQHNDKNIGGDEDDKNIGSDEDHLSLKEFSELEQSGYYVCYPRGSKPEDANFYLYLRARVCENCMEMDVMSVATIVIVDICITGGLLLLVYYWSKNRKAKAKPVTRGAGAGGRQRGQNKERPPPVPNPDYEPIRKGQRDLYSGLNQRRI
# T2 sequence (P04234 22-171, chain 2 of 3): as the sequence (Q95LI8 22-171, chain 2 of 3) above, with V5I, K15N, V20I, T32S, N33D, N34I, A64T, N74S, L83V, R141H counted along it
# T2 sequence (P09693 23-182, chain 3 of 3): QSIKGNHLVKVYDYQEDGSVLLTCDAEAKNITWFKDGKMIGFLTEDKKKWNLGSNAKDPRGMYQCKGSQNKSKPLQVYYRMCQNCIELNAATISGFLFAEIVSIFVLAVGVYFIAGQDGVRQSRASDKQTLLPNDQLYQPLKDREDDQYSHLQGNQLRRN
# Experiment: flow cytometry on HPB-ALL cells (hCD3+), detection with Alexa Fluor 647 goat F(ab')2 anti-human IgG Fcγ
# Description: as §1
row,binding result,Binder
1,binds,B2
2,binds,B3

# Biological target: T2, Human CD3 on HPB-ALL and Jurkat cells
# Experiment: flow cytometry on HPB-ALL cells (hCD3++), EGFR-CD3 DuetMab, detection with Alexa Fluor 647 goat F(ab')2 anti-human IgG Fcγ
row,EC50 (read off the curve),Binder
1,50 nM,B4

# Biological target: Biotinylated recombinant human CD3εδ (Acro Biosystems, CDD-H82W6) (human) (UniProt P07766)
# Sequence (P07766 23-126, stated change not applied, chain 1 of 2): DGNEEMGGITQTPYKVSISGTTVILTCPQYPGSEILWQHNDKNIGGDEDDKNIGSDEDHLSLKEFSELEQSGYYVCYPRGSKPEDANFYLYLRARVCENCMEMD
# Sequence (P04234 22-105, stated change not applied, chain 2 of 2, further chain): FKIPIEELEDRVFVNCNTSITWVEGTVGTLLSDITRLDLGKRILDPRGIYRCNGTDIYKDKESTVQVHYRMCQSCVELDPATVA
# Experiment: Octet BLI, biotinylated CD3εδ on streptavidin sensors, 1:1 model
Kd,koff,kon,Binder
24.3 nM,0.00105 s⁻¹,43300 M⁻¹ s⁻¹,B4
411 nM,0.00711 s⁻¹,17300 M⁻¹ s⁻¹,B5
217 nM,0.00605 s⁻¹,27900 M⁻¹ s⁻¹,B6
2050 nM,0.032 s⁻¹,15600 M⁻¹ s⁻¹,B7
550 nM,0.00928 s⁻¹,16900 M⁻¹ s⁻¹,B8
4660 nM,0.0511 s⁻¹,11000 M⁻¹ s⁻¹,B9
1860 nM,0.0422 s⁻¹,22700 M⁻¹ s⁻¹,B10
5000 nM,0.0755 s⁻¹,15100 M⁻¹ s⁻¹,B11
1710 nM,0.0212 s⁻¹,12400 M⁻¹ s⁻¹,B12
878 nM,0.0487 s⁻¹,55500 M⁻¹ s⁻¹,B13
853 nM,0.00923 s⁻¹,10800 M⁻¹ s⁻¹,B14
4580 nM,0.118 s⁻¹,25800 M⁻¹ s⁻¹,B15
